{"source": "patent US20140004122A1", "about": "“METHODS FOR TREATING OR PREVENTING CHOLESTEROL RELATED DISORDERS” (AMGEN INC., priority 2011, published 2014)", "molecules": {"B1": {"name": "21B12: human anti-PCSK9 monoclonal antibody; light/heavy variable region SEQ ID NO 23/49 (antibody, listed as Homo sapiens, V domains shown)", "VH": "QVQLVQSGAEVKKPGASVKVSCKASGYTLTSYGISWVRQAPGQGLEWMGWVSFYNGNTNYAQKLQGRGTMTTDPSTSTAYMELRSLRSDDTAVYYCARGYGMDVWGQGTTVTVSS", "VL": "QSALTQPASVSGSPGQSITISCTGTSSDVGGYNSVSWYQQHPGKAPKLMIYEVSNRPSGVSNRFSGSKSGNTASLTISGLQAEDEADYYCNSYTSTSMVFGGGTKLTVL"}}, "key": {"[1]": {"system": "hypercholesterolemic subjects with a 10 year Framingham risk score of 10% or less", "assay": "12 week monotherapy dose-ranging study (Example 24)", "format": "in vivo, human", "conditions": "for mean percent reduction from baseline in LDL-C: preliminary; for Least squares mean percent change from baseline (%) in LDL-C / Treatment difference vs ezetimibe (%) in LDL-C / Treatment difference vs placebo (%) in LDL-C: week 12; for Treatment difference vs ezetimibe (%) in LDL-C / Treatment difference vs placebo (%) in LDL-C: P < 0.001", "protocol": "Ezetimibe was not blinded. The end-of-study visit and the last estimation of lipids was at week 12 for subjects on Q4W IP schedule or on ezetimibe and week 14 for subjects on Q2W IP schedule.\nMales and females, ≧18 to ≦75 years of age, were eligible for this study. Fasting LDL-C was ≧100 mg/dL (2.6 mmol/L) and <190 mg/dL (4.9 mmol/L) and fasting triglycerides ≦400 mg/dL (4.5 mmol/L) by central laboratory at screening.\nThe primary endpoint was the percent change from baseline in LDL-C at week 12. Secondary endpoints included percent changes in apolipoprotein B (ApoB), lipoprotein (a) (Lp(a)), and in the ratio of total cholesterol to high-density lipoprotein (HDL)-C. Tolerability and safety were also evaluated."}, "[2]": {"target": "T1, human PCSK9 (Homo sapiens, UniProt Q8NBP7)", "T1 sequence (Q8NBP7 153-692)": "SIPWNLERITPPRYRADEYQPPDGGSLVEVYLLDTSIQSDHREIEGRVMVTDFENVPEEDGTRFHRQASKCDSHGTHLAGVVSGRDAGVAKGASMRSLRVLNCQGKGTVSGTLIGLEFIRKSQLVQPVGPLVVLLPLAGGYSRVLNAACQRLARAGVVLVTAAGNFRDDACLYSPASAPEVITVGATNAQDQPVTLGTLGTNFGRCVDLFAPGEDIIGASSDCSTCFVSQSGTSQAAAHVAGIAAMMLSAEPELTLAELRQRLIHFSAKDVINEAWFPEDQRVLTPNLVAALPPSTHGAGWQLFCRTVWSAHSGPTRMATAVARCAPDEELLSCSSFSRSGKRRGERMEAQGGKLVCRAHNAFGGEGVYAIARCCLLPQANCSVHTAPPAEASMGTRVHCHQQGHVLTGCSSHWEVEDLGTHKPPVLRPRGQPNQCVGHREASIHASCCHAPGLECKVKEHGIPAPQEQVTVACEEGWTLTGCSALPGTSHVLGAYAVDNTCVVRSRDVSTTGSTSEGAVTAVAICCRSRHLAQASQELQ", "assay": "BIAcore affinity analysis", "format": "binding", "conditions": "human PCSK9, pH 6.0, n=1"}, "[3]": {"target": "T1, human PCSK9", "assay": "BIAcore affinity analysis", "format": "binding", "conditions": "pH 7.4; read-out: KD hPCSK9", "protocol": "Briefly, the surface plasmon resonance experiments were performed using Biacore 2000 optical biosensors (Biacore, GE Healthcare, Piscataway, N.J.). […] The concentration of PCSK9 protein was varied at 2 fold intervals (the analyte) and was injected over the immobilized antibody surface (at a flow rate of 100 μl/min for 1.5 minutes). Fresh HBS-P buffer (pH 7.4, 0.01 M Hepes, 0.15 M NaCl, 0.005% surfactant P-20, Biacore) supplemented with 0.01% BSA was used as binding buffer.\nThe binding signal obtained was proportional to the free PCSK9 in solution.\nAntibody binding kinetic parameters including ka (association rate constant), kd (dissociation rate constant), and KD (dissociation equilibrium constant) were determined using the BIA evaluation 3.1 computer program (BIAcore, Inc. Piscataway, N.J.)."}, "[4]": {"system": "cynomolgus monkeys", "assay": "Serum lipids after single subcutaneous dose in cynomolgus monkeys (Example 36)", "format": "in vivo, cynomolgus monkey", "conditions": "0.5 mg/kg single SC", "text": "Briefly, naive male cynomolgus monkeys were acclimated to their environment for at least 2 weeks prior to experimentation. Animals were randomized into treatment groups based on a pre-screen of their serum TC, HDL-C, LDL-C, and triglyceride levels, and their body weight. After 1 week, animals were fasted overnight, and bled from the peripheral vasculature (cephalic or saphenous vein), for measurement of baseline serum lipid levels at a time point designated T=0. […] Fasting blood samples were then collected from animals at designated time points over a 45 day period.\nAt specified time points, blood was collected from animals under overnight fasting conditions from the peripheral vasculature (cephalic or saphenous vein). Whole blood was allowed to coagulate for 30 minutes at room temperature. Following centrifugation at 3,000 rpm for 20 minutes, serum was collected. Direct serum cholesterol analysis was performed using the Cobas Integra 400 analyzer (Roche Diagnostics Inc, Indianapolis, Ind.). Apolipoprotein B serum levels were determined at specified time points (day 0, 3, 6, 15, 24 and 33) by Anilytics, MD, with the following methodology. A 17 μL aliquot of the sample (no preparation) was used for analysis with a Hitachi 717 Analyzer using a 6 points standard curve. If the initial value of the sample was higher than the standard curve linearity, then the sample was diluted and repeated with the result multiplied by the appropriate dilution factor. The reagents for the assay (APO-B Reagent Kit #86071, Antibody Set #86060, Control Set #86103) were obtained from DiaSorin (Stillwater, Minn.).\nA statistical model that considers baseline as a covariate and treatment group as a fixed effect was fit to the log transformed response at each time point for LDL-C, HDL-C, TC, and triglycerides. Tukey's multiple comparison correction was applied to adjust the pair wise comparisons at each time point. The statistical significance was evaluated at alpha=0.05 using adjusted p-values."}, "[5]": {"system": "human patient exhibiting a Cholesterol Related Disorder", "assay": "Treatment of cholesterol related disorders (Example 16)", "format": "in vivo", "conditions": "therapeutically effective amount", "text": "At periodic times during the treatment, the patient is monitored to determine whether the symptoms of the disorder have subsided."}}, "note": "Read-outs that look alike come from different tables or passages of the source. Marks after values point to notes of the source that are not given here.", "data": [{"molecule": "B1", "values": [{"measurement": "mean percent reduction from baseline in LDL-C", "setting": "[1]; 70 mg (Q2W), end of the dosing interval", "value": 41.21, "unit": "%"}, {"measurement": "mean percent reduction from baseline in LDL-C", "setting": "[1]; 105 mg (Q2W), end of the dosing interval", "value": 45.44, "unit": "%"}, {"measurement": "mean percent reduction from baseline in LDL-C", "setting": "[1]; 140 mg (Q2W)", "value": 51.56, "unit": "%"}, {"measurement": "mean percent reduction from baseline in LDL-C", "setting": "[1]; 280 mg (Q4W), end of the dosing interval", "value": 37.53, "unit": "%"}, {"measurement": "mean percent reduction from baseline in LDL-C", "setting": "[1]; 350 mg, end of the dosing interval", "value": 42.16, "unit": "%"}, {"measurement": "mean percent reduction from baseline in LDL-C", "setting": "[1]; 420 mg", "value": 47.52, "unit": "%"}, {"measurement": "LDL-C reductions from baseline greater than ezetimibe", "setting": "[1]; final data", "value": 37, "unit": "%"}, {"measurement": "change in LDL-C from baseline to week 12 greater than with placebo", "setting": "[1]; final data", "value": "up to 72 mg/dL"}, {"measurement": "mean reduction from baseline for ApoB", "setting": "[1]; final data", "value": "up to 44%"}, {"measurement": "mean reduction from baseline for Lp(a)", "setting": "[1]; final data", "value": "up to 29%"}, {"measurement": "least-squares (LS) mean percent reduction from baseline in LDL-C", "setting": "[1]; week 12, final data", "value": "up to 51%"}, {"measurement": "Least squares mean percent change from baseline (%) in LDL-C", "setting": "[1]; Q2W 70 mg SC (N = 45)", "value": "−40.98", "unit": "%"}, {"measurement": "Treatment difference vs ezetimibe (%) in LDL-C", "setting": "[1]; Q2W 70 mg", "value": "−26.73* %"}, {"measurement": "Treatment difference vs placebo (%) in LDL-C", "setting": "[1]; Q2W 70 mg", "value": "−37.27* %"}, {"measurement": "Least squares mean percent change from baseline (%) in LDL-C", "setting": "[1]; Q2W 105 mg SC (N = 46)", "value": "−43.87", "unit": "%"}, {"measurement": "Treatment difference vs ezetimibe (%) in LDL-C", "setting": "[1]; Q2W 105 mg", "value": "−29.62* %"}, {"measurement": "Treatment difference vs placebo (%) in LDL-C", "setting": "[1]; Q2W 105 mg", "value": "−40.17* %"}, {"measurement": "Least squares mean percent change from baseline (%) in LDL-C", "setting": "[1]; Q2W 140 mg SC (N = 45)", "value": "−50.93", "unit": "%"}, {"measurement": "Treatment difference vs ezetimibe (%) in LDL-C", "setting": "[1]; Q2W 140 mg", "value": "−36.68* %"}, {"measurement": "Treatment difference vs placebo (%) in LDL-C", "setting": "[1]; Q2W 140 mg", "value": "−47.23* %"}, {"measurement": "Least squares mean percent change from baseline (%) in LDL-C", "setting": "[1]; Q4W 280 mg SC (N = 45)", "value": "−39.02", "unit": "%"}, {"measurement": "Treatment difference vs ezetimibe (%) in LDL-C", "setting": "[1]; Q4W 280 mg", "value": "−25.17* %"}, {"measurement": "Treatment difference vs placebo (%) in LDL-C", "setting": "[1]; Q4W 280 mg", "value": "−43.57* %"}, {"measurement": "Least squares mean percent change from baseline (%) in LDL-C", "setting": "[1]; Q4W 350 mg SC (N = 45)", "value": "−43.20", "unit": "%"}, {"measurement": "Treatment difference vs ezetimibe (%) in LDL-C", "setting": "[1]; Q4W 350 mg", "value": "−29.34* %"}, {"measurement": "Treatment difference vs placebo (%) in LDL-C", "setting": "[1]; Q4W 350 mg", "value": "−47.74* %"}, {"measurement": "Least squares mean percent change from baseline (%) in LDL-C", "setting": "[1]; Q4W 420 mg SC (N = 45)", "value": "−47.98", "unit": "%"}, {"measurement": "Treatment difference vs ezetimibe (%) in LDL-C", "setting": "[1]; Q4W 420 mg", "value": "−34.14* %"}, {"measurement": "Treatment difference vs placebo (%) in LDL-C", "setting": "[1]; Q4W 420 mg", "value": "−52.53* %"}, {"measurement": "Kd", "setting": "[2]", "value": 0.0073, "unit": "nM"}, {"measurement": "Kd", "setting": "[3]", "value": 0.19, "unit": "nM"}, {"measurement": "LDL-C returned to levels similar to control animals by day", "setting": "[4]", "value": "≤ 6", "unit": "days"}, {"measurement": "TC returned to levels similar to control animals by day", "setting": "[4]", "value": "≤ 4", "unit": "days"}, {"measurement": "maximal lowering of LDL-C as compared to anti-KLH IgG2 control antibody-treated monkeys", "setting": "[4]", "value": 64, "unit": "%"}, {"measurement": "maximal lowering of TC as compared to control animals", "setting": "[4]", "value": 20, "unit": "%"}, {"measurement": "time of maximal LDL-C lowering after injection", "setting": "[4]", "value": 3, "unit": "days"}, {"measurement": "time of maximal TC lowering after injection", "setting": "[4]", "value": 3, "unit": "days"}, {"measurement": "HDL-C levels", "setting": "[4]; 45 day study", "value": "lowered HDL-C at a single time point, 18 days after injection"}, {"measurement": "triglycerides levels", "setting": "[4]; 45 day study", "value": "No statistically significant changes"}, {"measurement": "HDL-C or triglyceride levels vs anti-KLH IgG2 control antibody-treated monkeys", "setting": "[4]; alpha=0.05", "value": "statistically significant change in HDL-C at a single time point (day 18 following injection)"}, {"measurement": "serum ApoB levels vs anti-KLH IgG2 control antibody-treated monkeys", "setting": "[4]; days 3, 6, 15, 24 and 33", "value": "statistically significant lower ApoB levels at day 3 only"}, {"measurement": "maximal lowering of LDL-C (vs anti-KLH IgG2 control antibody at the same time point)", "setting": "[4]; printed as negative change", "value": "−64", "unit": "%"}, {"measurement": "serum cholesterol levels vs patients that are not treated", "setting": "[5]", "value": "reduced serum cholesterol levels"}]}]}
